# From the DeepSol protein solubility set
# Experiment: soluble on expression in E. coli; label from the status in PepcDB or PDB records
row,Sequence,soluble on expression in E. coli
1,MDSEEPPNVRVACSGDIDEVVRLMHDAAAWMSAKGTPAWDVARIDRTFAETFVLRSELLVASCSDGIVGCCTLSAEDPEFWPDALKGEAAYLHKLAVRRTHAGRGVSSALIEACRHAARTQGCAKLRLDCHPNLRGLYERLGFTHVDTFNPGWDPTFIAERLELEI,not soluble
2,MGSDKIHHHHHHMIHLSPNDLPVGAPLPWSLLDGDGNLVLGSGNVIPDTRDVALVFRHGELCRLEADSGGDPQDDPLPRGPLGLQVGTLLHVKQPGDNSRAAASRLIGFVEQGLFMTWPQLGGRDLPVQAGDTLLLRGFSGRVIHSFTSTITAVCRSPFRYLVLSAPSQLDQMPVRKAARVPTRMAAYMTQSQESFQEADQDAFSAEMANGAARLVMVSDLSTGGAQIHAAGPAPVIGSRVQLRFRLRTASLDSEIVADAWVRAVTSDTADAEFPSFGISFDVLGEREMTLLQCFIYEQLLTSSGLGVHR,not soluble
3,MSLGNDRWRAEFPLERIGTYEFRVEAWRDVFATLHADLEKKRAANTVLPVDVQEAVAAVQAAQARSDGALAERLQTVLTRIGAQSEPLQQLAIVLEPDTAQAMALADDKPFRSEYPVTFRVESERRAAHFSSWYELFPRSQSGDASRHGTFDDVIKRLPHIRAMNFDVLYMPPIHPIGLNNRKGRNNSVTAVEGEPGSPYAIGATDGGHTEVHAELGGLEGFRRLIEAARAQGLEVALDFAIQCAPDHPWLKEHKDWFTWRADGSIPYAENPPKKYQDIVNVDFYASGAVPDLWNTLRDAVLFWVNEGVTLFRVDNPHTKPFPFWEWLIADVRGRRPDVVFLSEAFTRPKMMYRLAKCGFSQSYTYFTWRNHKHELQAYVEELNDGVPRECFRPHFFVNTPDINPLFLQTSGRNGHLIRAALATTLSGLWGMYQGFELCEATPLAPGKEEYLDSEKFQLRAWPERVPGDIVEEITRFNQLRRMHPELQSHLGTRFYQAHNDQVLYYGKFLDAGYLSRSRSMVLVAINLDPHAGQDADIEIPLWELGLPDHASVAVEDLWDGHRFAWHGKYQHIRLEATRPFALWRIRAGEGHHHHHH,not soluble
4,MAEVFVGPVAQGYASGEVTVLLASPRSFCAGVERAIETVKRVLDVAEGPVYVRKQIVHNTVVVAELRDRGAVFVEDLDEIPDPPPPGAVVVFSAHGVSPAVRAGADERGLQVVDATCPLVAKVHAEAARFAARGDTVVFIGHAGHEETEGTLGVAPRSTLLVQTPADVAALNLPEGTQLSYLTQTTLALDETADVIDALRARFPTLGQPPSEDICYATTNRQRALQSMVGECDVVLVIGSCNSSNSRRLVELAQRSGTPAYLIDGPDDIEPEWLSSVSTIGVTAGASAPPRLVGQVIDALRGYASITVVERSIATETVRFGLPKQVRAQ,not soluble
5,MGSDKIHHHHHHGCNQSSKSDTKKEVTSKVGTYASVDCSTFTKSKDLPKGASCGYLTVPEKHAIKGQSASKKTMEIAVLKIPATKTEAKADPVVYLQGGPGYSAIDSLEDFTQSKAKYLWNDRDFYLVDQRGTGHAKPAYKCTEFNTVKGSIEQVKACKARLKAKGVDFSAYQSVQSAHDFIMLRKALKLDSWNLYGASYGTRLAETIIREDSQGVRSVILDGVFPIEVNGLSDTPWATYATLDRIVANCDASINCASEILKPMIESIIERLQNQGEEQAAIRFVNYIASLAGDARVVPLILAIDKDLNIIINEKDNEEAEGYFAPMALSVVCAEEYAFLNQTALEGRNDKNWSTTTTLTVNKMFHEGFDIDSCKAWDVAAADSIETQAVTSNLPILVINGGNDHQTPPAWGELVVKNMPNAQLFTNPQGGHVQLTSQNPYRNCIDGITMAFLAAPDQKIKTQCTSMIPVFKYN,not soluble
6,MSLIDTMQYGKNDSLRDEIKAYWSGRAATFDLSPGHEIFSEDERAAWHALILKHLGRGEGRKALDLASGTGVISHLMDDLGFQVTGMDWSETMLGLAREKAKSRGRNIRFFVGDAENTMEPDESADVIITRHLVWTLVDPQASFAEWFRVLKPGGKLLIVDGDFVNTGWRERLVKKLAVSLESIGLVKADQPHKPADPENTFNSILSRVYFSKGARAGDVATMLGATGFEPVSVDQELRAIHRAQAKNFSLLKGILRGLQHRYAVCAVKPDTSVKGEGHHHHHH,not soluble
7,FEPMMQRDKIMQNLSYISDVNVLPDWMTVSQLLSYTEGVHPGFNRSKADALLRQTDIKPRAKIRALSKGMKVQLHLAIVIATNTQILILDEPTLGLDLVYRDTFYRHLLEWFHDGERVLIITSHEVSEIEHLLTDVLILKHGRPVLQTSMESISEDYFILDANDEHRAQIEAMHPLSSQKGLGTTKWLLSSQYADQAAGLGDVHGVKLADLFLALQKEAA,not soluble
8,GPGSMLDAATGKSKGFGFVLFDEEEKGAKAYKALNRKMTRACGHSFTLVIYPSNHNGKIFTEESNALYIRNIPISIGQEKMERFLRTFGNLIYFAMREDHYGNPVWVVYAEYETVDDAKNALAKLHGNNTYFHGSVPILAKFEDSDDAKKERRRRRDGMQTHDRTAGAFFRHRSATTRTLDRFTPLPRR,not soluble
9,MPNLSNRLTLLREKQGWSKAETARRLGLKAPSTYGNWEYGIREPDLDMVTQIATLYDVSVDYLLGQQSIPTYAPSELQGEKDIAKRMIKISEDLRYEDDLNLNGKPLNDSAAHFLADSIDFLYEQAKKLND,not soluble
10,MGSDKIHHHHHHMYQQVIDFIEHQKKIGALHPGDKLPSLRKLSRQFDISVPTVKQAYIELERQGQVCAKPQSGYYLQAMQARTLKPRPAKWAQCDPVEVQGRSMIEQVHAAVHLPNTVALGISNPIQAHPPDKALARLMRSVLSKVSEKAVSYGPVTGDAKLRMQLAFRYQDQGVETNPDDIVITNGAQEALSIALQCVAKRGDIIAIESPCFFGMIELIETLGMKALEVYTCTEDGVCVEDLAEAINQHDITACLFSTAINNPLGSMKTDEQRQAMVSLLEQHDIPLIEDEVYSEIYFTDNKPKPAQLYSEKGLVMTCSSFSKTAAPGYRIGWLLPGKFEEQAKRIKRAQSASTPMLQQWTLNEYLLSGDYDRHLCVLRKTLAYNCERMRALIAEHFPPEVCISKPLGGSVLWLRCQSHVKTGEFFQQALTQGVSFAPGAIFSPSGKYQNYMRVSYGVQWGEDVETAVKVLGQLVYEYTSKQKTAQLMEKQ,not soluble
11,MGSDKIHHHHHHMIVVKPSPGSAQSIPANANGPKWDVGEAVSQLSWDDLRIIKTLSDCSNRAATAKKLGINVSTVSRRVAQVEKTLGVALFDHRKAGYLLTAEGVELRALAERVELDIVSVTRRVSRAGQGPLGKLRITTSDSLLLYFLTPIIADFKALNEGITIEVLVGNQTLSLARDESDIAVRATKKPTDTLVGRKLANIAWAAYGSVKQAAITDPFAEGQAWVSYSGGLCGLKATSYVECRVPSELISYRTDSVAAASAAIAAGLGFGFLPCMLGDITPGLVRAGPVVQELQDELWLLTHQDIRKSWRVKAFMTFCAAAVADLKPLVEGQQAIPAS,not soluble
12,MGSDKIHHHHHHMTKETATISQLQQDIINNSQKGFPLTSQPYKTIAEQLADVNIVTNELEVFQAIDDLNSQEVLSRVGPVFDHKKAGASTLAALAVPAKDLDKIAGIVNQFDQVNHNYGREHVYNLWFVVTASDMVALNSTIVNIELLTGLPVLVLPMEASYHIDLAFSINVTGIESPTSNQENRPVTFDNNDTTSLTDIEKTALRRAIEKGLPTHLFPYQAIAQQLALSEQQVLMQISLWQEEGLIRRFGLVIKHRKLGYDANAMVVWNIPNENMDAIALKLAKCAPVSLCYQRPRRLPDWPYNLFCMIHGTDRSLVLQQISQITEQLGLESIEKDVLFSFKAYKQHGARYFKTNSKKAKTNNISAGKTENNNDMKKQGQAHG,not soluble
13,MYGAVVVAGDHQRGAGVGMLRTRKLAQVAEINVVKSLDYLRLWHPILQNLRGRDFPTIELLLLRWRPARSAPPLSPPRTQDFENPWSPKSHRTALPWVFVFLSSRSRDRGPKNPTRAQWVPMNR,not soluble
14,MDLRDLKTFLHLAESRHFGRSARAMHVSPSTLSRQIQRLEEDLGQPLFVRDNRTVTLTEAGEELRVFAQQTLLQYQQLRHTLDQQGPSLSGELHIFCSVTAAYSHLPPILDRFRAEHPSVEIKLTTGDAADAMEKVVTGEADLAIAGKPETLPGAVAFSMLENLAVVLIAPALPCPVRNQVSVDKPDWSTVPFIMADQGPVRRRIELWFRRHKISNPQIYATVGGHEAMVSMVALGCGVALLPEVVLENSPEPVRNRVMILERSDEKTPFELGVCAQKKRLHEPLIDAFWKILPN,soluble
15,MGSDKIHHHHHHMNYFSYLSLEERQNFFYKEPLSFSKNIEKEQLAYALGATLYTPGTKETIAEDIIRKKHVEATSIIFCLEDSISDKEVKFAEQNIVFQIQQISNLVSDNILNQADIPLLFIRVRQPSQMRTIVTELGSAVHCLCGFVFPKFTPVNGKSYIDQLAYINKLYSLSLYGMPILESPEIMYRETRVKSLLQIKDLLDSYRDYILNVRIGATDFSSIFGIRRNKHTPIYHITVVRDCISDIINIFSRATNGYVISGCVWEYFSNDYEEGLIQEVSLDHANGLIGKTVIHPSHIKVVQAMHIVTMEDYLDARSILQHANTYNGVLKSSFANKMNEVKPHYNWARKTILKSNIYGVLHENKQFTDLLITNAKQHV,not soluble
16,MCDTLILRHQGQTWFAKNSDREPAEPQRLLRLPAVRNDPEARLRTTYLDIPQTAQRHALVISQPSWIWGAEMGVNEHGVAIGNEAVFTKLTRQRGTALLGMDLLRLGLERGASAREALEVITGLLQRYGQGGPAGYRDKRIRYDNSFLIADPGEAWVLETAGNLWAAKKVERWAISNALTLGHEFDLCSRDLEDQARRQGCWDGRGDFHFARVFDTRLLPWVGGAHRRCRINQRFLDSLPGEPDWHALFAALRHHGPRGDHFRRHNNRQVCMHAGSFWRPSQTTASLVARLRDDGPLLAATGTSAPCLGLFQPLSFDPASGAAVLSQPREAVQESPWWRFEAVHRRALTDRAFRRLLRSGRDWLERELFADLEQPDWPRLAEDAAAWHACWHDQVAMQPLAQQRWWRSHAALAAALEHHHHHH,not soluble
17,MKEKIALITGVTGQDGSYLAEYLLNLGYEVHGLKRRSSSINTSRIDHLYEDLHSDHKRRFFLHYGDMTDSSNLIHLIATTKPTEIYNLAAQSHVKVSFETPEYTANADGIGTLRILEAMRILGLEKKTRFYQASTSELYGEVLETPQNENTPFNPRSPYAVAKMYAFYITKNYREAYNLFAVNGILFNHESRVRGETFVTRKITRAASAIAYNLTDCLYLGNLDAKRDWGHAKDYVKMMHLMLQAPIPQDYVIATGKTTSVRDFVKMSFEFIGINLEFQNTGIKEIGLIKSVDEKRANALKLNLSHLKKGQIVVRIDERYFRPTEVDLLLGDPTKAEKELDWVREYDLKELVKDMLEYDLKECQKNLYLQDGGYILRNFYE,soluble
18,MQMIHKEGWIEVICGSMFSGKSEELIRRVRRATYGRLKVQVFKPAIDNRYSEQEVVSHNGNKVCAIPVERAMSILEQWSEDTDIVAIDEVQFFDEDVIGVVDYLADHGVRVICAGLDQDFRGEPFEPTRTLMAMAEYVTKLQAICPVCGSPASRTQRLIDGKPASYHDPIILVGAAEAYEPRCRHCHQVTNKPSKLPETASSGELEHHHHHH,soluble
19,LKELHILTRDGKINQDTRRKLKQVYHLYQFIEPLMADVLEKKGAMTLADHGAGKSYLGFILYDLFLKEKAAGHVYGVETRQELVDKSRELAERLGFERMGFLNLTVEQSITSTALPEQVDIITALHACNTATDDAIRFALAKDAQYIVLVPCCQAEVASVLRQKKNETFGKTPLSELWRHPIHTRE,not soluble
